{"source": "patent US20240254223A1", "about": "(published 2024)", "binders": {"B1": {"name": "pNOVI V2K K33 (antibody, V domains shown)", "VH": "not shown", "VL": "DIQMTQSPSSLSASVGDRVTITCRASQSISSYLNWYQQKPGKAPKLLIYAASSLQSGVPSRFSGSGSGTDFTLTISSLQPEDFATYYCQQFHKRSPQKFGQGTKVEIKR"}}, "molecular_target": "His-tagged human CD47 (human, UniProt Q08722 19-139)", "sequence (Q08722 19-139)": "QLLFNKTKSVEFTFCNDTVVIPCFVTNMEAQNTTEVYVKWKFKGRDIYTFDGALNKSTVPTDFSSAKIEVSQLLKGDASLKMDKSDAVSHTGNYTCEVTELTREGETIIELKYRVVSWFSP", "data": [{"binder": "B1", "values": [{"measurement": "Kd", "value": 56, "unit": "nM"}]}]}
